According to publication PMC11210196:

System: CsrA-H6 (Escherichia coli (K-12 MG1655?))
Experiment: EMSA
Details: apparent Kd, EMSA: 0.08-0.2 nM RNA, 10 mM MgCl2, 100 mM KCl, 32.5 ng SUPERase In, 37 C 30 min, footprint: 2 nM RNA, 10 mM Tris-HCl pH 7.5, 10 mM MgCl2, 100 mM KCl, 40 ng …

evgA 5' leader (EMSA)
Kd (two shifted species): 7 nM

gadB 5' leader (EMSA)
Kd (two shifts): 49 nM

gadA 5' leader (EMSA)
Kd (two shifts): 73 nM

gadE 5' leader (EMSA)
Kd: 138 nM

ydeO 5' leader (EMSA)
Kd (binds both conformers): 84 nM
